Reference: patent publication US12295987B2, “Method of using a GIP/GLP1 co-agonist for diabetes” (Eli Lilly and Company, priority 2018, dated 2025)

molecular target: T1, human gastric inhibitory peptide receptor (hGIPR) (Homo sapiens, UniProt P48546); assay: cAMP pharmacological functional assay in presence of 0.1% casein, hGIPR; type: cell-based; settings: ratio of hGIPR to hGLP1R cAMP EC50 ratios
T1 construct: expressed in transfected cells; host or cells: HEK293
T1 sequence (P48546 22-466): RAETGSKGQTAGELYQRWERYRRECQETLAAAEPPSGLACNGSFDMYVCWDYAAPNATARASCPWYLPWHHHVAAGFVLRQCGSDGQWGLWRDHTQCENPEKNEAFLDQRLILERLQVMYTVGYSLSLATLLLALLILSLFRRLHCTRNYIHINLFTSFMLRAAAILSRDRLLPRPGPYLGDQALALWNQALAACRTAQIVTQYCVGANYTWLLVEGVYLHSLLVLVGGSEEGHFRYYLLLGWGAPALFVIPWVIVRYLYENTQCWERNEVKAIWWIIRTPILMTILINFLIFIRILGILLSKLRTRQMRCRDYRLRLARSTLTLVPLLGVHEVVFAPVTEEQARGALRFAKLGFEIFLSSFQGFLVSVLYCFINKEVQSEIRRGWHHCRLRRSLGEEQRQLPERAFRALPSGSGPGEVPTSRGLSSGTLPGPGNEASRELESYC
Protocol: Each receptor over-expressing cell line (20 μl) is treated with the test peptide in DMEM (Gibco Cat #31053) supplemented with 0.1% Casein (Sigma Cat #C4765), 250 μM IBMX, 1× GlutaMAX™ (Gibco Cat #35050), and 20 mM HEPES (HyClone Cat #SH30237.01) in a 20 μl assay volume. […] EC50 is the concentration of compound causing half-maximal simulation in a dose response curve. A relative EC50 value is derived by non-linear regression analysis using the percent maximal response vs. the concentration of peptide added, fitted to a four-parameter logistic equation.
Intracellular cAMP levels are determined by extrapolation using a standard curve. Dose response curves of compounds are plotted as the percentage of stimulation normalized to minimum (buffer only) and maximum (maximum concentration of each control ligand) values and analyzed using a four parameter non-linear regression fit with a variable slope (Genedata Screener 13). EC50 is the concentration of compound causing half-maximal simulation in a dose response curve.
EC50 is the concentration of compound causing half-maximal simulation in a dose response curve.

Substance | [hGIPR/hGLP1R] EC50 Ratio
Y-Aib-Aad-GTFTSDYSILLDKK((2-[2-(2-Amino-ethoxy)-ethoxy]-acetyl)2-(γGlu)-CO—(CH2)18—CO2H)AQ-Aib-AFIEYLIEGGPSSGAPPPS-NH2 (YXXGTFTSDYSILLDKKAQXAFIEYLIEGGPSSGAPPPS; Aib, Aad, lipidated Lys, C-terminal amide; (2)..(2) Xaa at position 2 is Aib; (3)..(3) Xaa at position 3 is Aad; MOD_RES (17)..(17) Lys at position 17 is chemically modified by conjugation of the epsilon-amino group of the Lys side chain with (2-[2-(2-amino-ethoxy)-ethoxy]-acetyl)2-(gamma-Glu)-CO-(CH2)18- CO2H; (20)..(20) Xaa at position 20 is Aib; MOD_RES (39)..(39) Ser at position 39 is amidated) [Peptide 89] | 8.97
Y-Aib-EGT-αMeF(2F)-TSD-3Pal-SI-αMeL-LDEK((2-[2-(2-Amino-ethoxy)-ethoxy]-acetyl)2-(γGlu)-CO—(CH2)18—CO2H)AQ-Aib-EFIEYLIEGGPSSGAPPPS-NH2 (YXEGTXTSDXSIXLDEKAQXEFIEYLIEGGPSSGAPPPS; Aib, αMeF(2F), 3Pal, αMeL; lipidated K; C-terminal amide; (2)..(2) Xaa at position 2 is Aib; (6)..(6) Xaa at position 6 is alpha-methyl-Phe(2F); (10)..(10) Xaa at position 10 is 3Pal; (13)..(13) Xaa at position 13 is alpha-methyl-Leu; MOD_RES (17)..(17) Lys at position 17 is chemically modified by conjugation of the epsilon-amino group of the Lys side chain with (2-[2-(2-amino-ethoxy)-ethoxy]-acetyl)2-(gamma-Glu)-CO-(CH2)18- CO2H; (20)..(20) Xaa at posit) [Peptide 157] | 2.52
Y-Aib-EGT-αMeF(2F)-TSD-4Pal-SI-αMeL-LD-Dab-K((2-[2-(2-Amino-ethoxy)-ethoxy]-acetyl)2-(γGlu)-CO—(CH2)16—CO2H)AQ-Aib-EFI-(D-Glu)-YLIEGGPSSGAPPPS-NH2 (YXEGTXTSDXSIXLDXKAQXEFIXYLIEGGPSSGAPPPS; Aib, 4Pal, Dab, lipidated Lys, D-Glu, C-terminal amide; (2)..(2) Xaa at position 2 is Aib; (6)..(6) Xaa at position 6 is alpha-methyl-Phe(2F); (10)..(10) Xaa at position 10 is 4Pal; (13)..(13) Xaa at position 13 is alpha-methyl-Leu; (16)..(16) Xaa at position 16 is Dab; MOD_RES (17)..(17) Lys at position 17 is chemically modified by conjugation of the epsilon-amino group of the Lys side chain with (2-[2-(2-amino-ethoxy)-ethoxy]-acetyl)2-(gamma-Glu)-CO-) [Peptide 233] | 9.25
Y-Aib-EGT-αMeF(2F)-TSD-4Pal-SI-αMeL-LD-Orn-K((2-[2-(2-Amino-ethoxy)-ethoxy]-acetyl)2-(γGlu)-CO—(CH2)16—CO2H)AQ-Aib-EFI-(D-Glu)-αMeY-LIEGG-NH2 (YXEGTXTSDXSIXLDXKAQXEFIXXLIEGG; Aib, αMeF(2F), 4Pal, αMeL, Orn, αMeY, D-Glu; C18 diacid lipidation; amide; (2)..(2) Xaa at position 2 is Aib; (6)..(6) Xaa at position 6 is alpha-methyl-Phe(2F); (10)..(10) Xaa at position 10 is 4Pal; (13)..(13) Xaa at position 13 is alpha-methyl-Leu; (16)..(16) Xaa at position 13 is Orn; MOD_RES (17)..(17) Lys at position 17 is chemically modified by conjugation of the epsilon-amino group of the Lys side chain with (2-[2-(2-amino-ethoxy)-ethoxy]-acetyl)2-(gamma-Glu)-CO-) [Peptide 265] | 2.99
Y-Aib-EGT-αMeF(2F)-TSD-4Pal-SI-αMeL-LD-Orn-K((2-[2-(2-Amino-ethoxy)-ethoxy]-acetyl)2-(γGlu)-CO—(CH2)16—CO2H)AQ-Aib-EFI-(D-Glu)-αMeY-LIEGGPSSG-NH2 (YXEGTXTSDXSIXLDXKAQXEFIXXLIEGGPSSG; Aib, αMeF(2F), 4Pal, αMeL, Orn, αMeY, D-Glu; C18 diacid lipidation; amide; (2)..(2) Xaa at position 2 is Aib; (6)..(6) Xaa at position 6 is alpha-methyl-Phe(2F); (10)..(10) Xaa at position 10 is 4Pal; (13)..(13) Xaa at position 13 is alpha-methyl-Leu; (16)..(16) Xaa at position 16 is Orn; MOD_RES (17)..(17) Lys at position 17 is chemically modified by conjugation of the epsilon-amino group of the Lys side chain with (2-[2-(2-amino-ethoxy)-ethoxy]-acetyl)2-(gamma-Glu)-CO-) [Peptide 264] | 2.63
Y-Aib-EGT-αMeF(2F)-TSD-4Pal-SI-αMeL-LD-Orn-K((2-[2-(2-Amino-ethoxy)-ethoxy]-acetyl)2-(γGlu)-CO—(CH2)16—CO2H)AQ-Aib-EFI-(D-Glu)-αMeY-LIEGGPSSGAPPPS-NH2 (YXEGTXTSDXSIXLDXKAQXEFIXXLIEGGPSSGAPPPS; Aib, 4Pal, Orn, αMe residues, lipidated Lys, D-Glu, amide; (2)..(2) Xaa at position 2 is Aib; (6)..(6) Xaa at position 6 is alpha-MeF(2F); (10)..(10) Xaa at position 10 is 4Pal; (13)..(13) Xaa at position 13 is alpha-MeL; (16)..(16) Xaa at position 16 is Orn; MOD_RES (17)..(17) K at position 17 is chemically modified by conjugation of the epsilon-amino group of the K side chain with (2-[2-(2-amino-ethoxy)-ethoxy]-acetyl)2-(gamma-Glu)-CO-(CH2)16- CO2H; (20) [Peptide 4] | 4.22
Y-Aib-EGT-αMeF(2F)-TSD-4Pal-SI-αMeL-LD-Orn-K((2-[2-(2-Amino-ethoxy)-ethoxy]-acetyl)2-(γGlu)-CO—(CH2)16—CO2H)AQ-Aib-TFI-(D-Glu)-αMeY-LIEGGPSSGAPPPS-NH2 (YXEGTXTSDXSIXLDXKAQXTFIXXLIEGGPSSGAPPPS; Aib, 4Pal, Orn, αMe residues, lipidated Lys, D-Glu, amide; (2)..(2) Xaa at position 2 is Aib; (6)..(6) Xaa at position 6 is alpha-methyl-Phe(2F); (10)..(10) Xaa at position 10 is 4Pal; (13)..(13) Xaa at position 13 is alpha-methyl-Leu; (16)..(16) Xaa at position 16 is Orn; MOD_RES (17)..(17) Lys at position 17 is chemically modified by conjugation of the epsilon-amino group of the Lys side chain with (2-[2-(2-amino-ethoxy)-ethoxy]-acetyl)2-(gamma-Glu)-CO-) [Peptide 239] | 5.34
Y-Aib-EGT-αMeF(2F)-TSD-4Pal-SI-αMeL-LD-Orn-K((2-[2-(2-Amino-ethoxy)-ethoxy]-acetyl)2-(εK)-CO—(CH2)18—CO2H)AQ-Aib-AFI-(D-Glu)-αMeY-LIEGGPSSGAPPPS-NH2 (YXEGTXTSDXSIXLDXKAQXAFIXXLIEGGPSSGAPPPS; Aib, 4Pal, Orn, αMe residues, lipidated Lys, D-Glu, amide; (2)..(2) Xaa at position 2 is Aib; (6)..(6) Xaa at position 6 is alpha-methyl-Phe(2F); (10)..(10) Xaa at position 10 is 4Pal; (13)..(13) Xaa at position 13 is alpha-methyl-Leu; (16)..(16) Xaa at position 16 is Orn; MOD_RES (17)..(17) Lys at position 17 is chemically modified by conjugation of the epsilon-amino group of the Lys side chain with (2-[2-(2-amino-ethoxy)-ethoxy]-acetyl)2-(epsilon-Lys)-C) [Peptide 251] | 3.74
